Assays:
[1] = target: T1, recombinant hAng2 (C-His, R&D Systems) (human, UniProt O15123 19-496); assay: SPR, BIAcore T100; hAng2 (C-His) captured on anti-His CM5 chip, antibody flowed
T1 construct: Bought protein (R&D Systems), captured on an anti-His chip in SPR; also called human Ang2 protein; Angiopoietin-2; not shown: C-terminal His tag
T1 sequence: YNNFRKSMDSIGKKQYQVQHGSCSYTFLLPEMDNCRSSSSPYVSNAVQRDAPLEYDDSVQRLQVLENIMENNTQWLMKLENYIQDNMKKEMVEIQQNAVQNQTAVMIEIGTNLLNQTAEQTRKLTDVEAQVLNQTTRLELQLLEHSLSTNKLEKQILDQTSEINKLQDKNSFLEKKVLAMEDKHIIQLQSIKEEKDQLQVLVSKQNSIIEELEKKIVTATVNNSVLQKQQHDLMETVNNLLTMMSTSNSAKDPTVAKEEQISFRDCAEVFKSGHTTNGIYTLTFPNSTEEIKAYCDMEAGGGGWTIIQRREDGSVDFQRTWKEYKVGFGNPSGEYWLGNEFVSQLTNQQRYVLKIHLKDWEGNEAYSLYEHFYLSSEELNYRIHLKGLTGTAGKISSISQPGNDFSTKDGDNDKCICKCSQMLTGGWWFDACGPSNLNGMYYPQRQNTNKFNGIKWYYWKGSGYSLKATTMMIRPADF
Procedure: The binding affinity (KD values) of the antibodies to human Ang2 protein was measured by an SPR method using a BIAcore T100 (GE Healthcare). 25 μg/ml anti-His antibody was immobilized on a CM5 sensor chip (GE healthcare) using a pH 5.0 acetate solution and an amine coupling kit (GE Healthcare). 6 μg/ml of a recombinant hAng2 (C-His, R&D Systems) protein was flowed onto the chip to be captured at 100 to 200 RU levels.

BSA [2] = target: T2, BSA (bovine, UniProt P02769); assay: Complex ELISA: BSA coated (4 µg/ml), FLAG-Ang2 0.25 µg/ml and 10D6 2 µg/ml, Ang2 on the plate shown indirectly by bound 10D6 (anti-mouse IgG-HRP, OD450)
T2 construct: commercial preparation, not further described; also called Bovine serum albumin; BSA (Sigma)
Procedure: (§1) A 96-well MaxiSorp™ flat-bottom plate (Nunc) was coated with 4 μg/ml of Tie2-Fc (R&D systems) or BSA (Sigma). Then, the plate was washed five times with 0.05% (v/v) Tween-20-containing PBS (Phosphate Buffer Saline) and blocked with 1% (v/v) BSA (Bovine serum albumin; Sigma)-containing PBS at a room temperature for 2 hours. 0.25 μg/ml of Ang2 and 2 μg/ml of 10D6 antibody were added to each well of the plate, which was allowed to react at a room temperature for 2 hours and then washed five times with PBST. After that, an anti-mouse IgG antibody (Sigma) conjugated with HRP diluted in 1% (v/v) BSA-containing PBS at a ratio of 1:5,000 (v/v) was added in an amount of 100 μl to each well to react at a room temperature for 1 hour and then, the plate was washed five times with PBST. Lastly, 100 μl (microliter) of TMB substrate (Cell Signaling) was added to each well of the plate to induce color development for 3 min. and then, the reaction was ceased by the addition of 100 μl of Stop solution (Cell Signaling) and OD450 values were measured on a plate reader (Molecular Devices).

hTie2-Fc (R&D Systems) = target: T3, hTie2-Fc (R&D Systems) (human, UniProt Q02763 23-745); assay: Complex ELISA: Tie2-Fc coated (4 µg/ml), 10D6 2 µg/ml without Ang2, anti-mouse IgG-HRP, OD450
T3 construct: Bought fusion protein, coated on the plate at 4 ug/ml; also called hTie-2/Fc fusion protein; not shown: Fc of human IgG1
Procedure: as §1

BSA [3] = target: T2, BSA; assay: Complex ELISA: BSA coated (4 µg/ml), 10D6 2 µg/ml, anti-mouse IgG-HRP, OD450
Procedure: as §1

T2 sequence (P02769 25-607 limits assumed): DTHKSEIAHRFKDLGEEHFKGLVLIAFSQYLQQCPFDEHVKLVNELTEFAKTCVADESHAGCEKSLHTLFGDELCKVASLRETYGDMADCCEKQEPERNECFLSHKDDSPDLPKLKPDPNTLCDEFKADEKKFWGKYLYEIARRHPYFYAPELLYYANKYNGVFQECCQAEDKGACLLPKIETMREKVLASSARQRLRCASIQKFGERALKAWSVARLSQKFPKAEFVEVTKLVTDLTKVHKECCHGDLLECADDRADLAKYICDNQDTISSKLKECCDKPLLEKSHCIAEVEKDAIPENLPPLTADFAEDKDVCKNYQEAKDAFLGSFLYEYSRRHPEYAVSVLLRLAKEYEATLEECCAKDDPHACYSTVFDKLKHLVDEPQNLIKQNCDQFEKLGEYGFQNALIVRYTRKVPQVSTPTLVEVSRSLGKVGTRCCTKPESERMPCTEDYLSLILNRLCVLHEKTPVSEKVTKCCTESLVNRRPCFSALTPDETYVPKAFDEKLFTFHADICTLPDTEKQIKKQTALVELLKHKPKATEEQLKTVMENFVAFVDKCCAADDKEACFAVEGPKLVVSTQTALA
T3 sequence (Q02763 23-745 limits assumed): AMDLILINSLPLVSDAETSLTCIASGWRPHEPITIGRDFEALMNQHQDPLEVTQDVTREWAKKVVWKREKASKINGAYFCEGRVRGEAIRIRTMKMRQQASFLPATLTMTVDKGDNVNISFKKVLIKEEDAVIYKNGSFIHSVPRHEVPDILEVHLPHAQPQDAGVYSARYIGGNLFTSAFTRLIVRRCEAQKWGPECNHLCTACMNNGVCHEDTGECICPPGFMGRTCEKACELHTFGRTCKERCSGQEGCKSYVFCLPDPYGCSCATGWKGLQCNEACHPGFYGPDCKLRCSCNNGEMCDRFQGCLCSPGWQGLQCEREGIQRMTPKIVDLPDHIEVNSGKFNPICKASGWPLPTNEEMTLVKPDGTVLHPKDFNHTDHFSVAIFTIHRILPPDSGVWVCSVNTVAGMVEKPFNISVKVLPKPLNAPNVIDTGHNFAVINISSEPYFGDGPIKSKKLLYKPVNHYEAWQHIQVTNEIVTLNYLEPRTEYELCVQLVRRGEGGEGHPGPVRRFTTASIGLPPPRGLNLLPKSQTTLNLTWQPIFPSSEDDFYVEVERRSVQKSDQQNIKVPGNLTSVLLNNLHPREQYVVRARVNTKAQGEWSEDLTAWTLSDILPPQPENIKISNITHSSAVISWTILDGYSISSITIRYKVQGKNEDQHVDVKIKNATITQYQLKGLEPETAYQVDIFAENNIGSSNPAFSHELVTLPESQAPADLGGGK

B1: h10D6-OPTI-65 (antibody, V domains shown)
VH: QVQLQESGPGLVKPSETLSLTCAVSGYSITSDYAWNWIRQPPGKGLEWMGKISYSGKTDYNPSLKSRSTISRDTSKNQFSLKLSSVTAADTAVYYCARGNFEGAMDYWGQGTLVTVSS
VL: DIQMTQSPSSLSASVGDRVTITCKASQSVSNDVAWYQQKPGKAPKLLIYYASIPYPGVPSRFSGSGSGTDFTLTISSLQPEDFATYYCQQDYSSPWTFGQGTKLEIK
notes: also called HU2-6.6 / 10D6_VL-Hu1-2.4
Kd [1]: 0.0454 nM | kon [1]: 496000 M⁻¹ s⁻¹

B2: FLAG-tagged hAng2 (ligand)
chain: T1 sequence
notes: not shown: FLAG tag
binding result (BSA [2]): no binding (tested: 0.25 µg/ml)

B3: SAIT-ANG2-AB-m10D6 (antibody, V domains shown)
VH: DVQLQESGPDLVKPSQSLSLTCTVTGYSITSDYAWNWIRQFPGNKLEWMGYINYSGNTDYNPSLKSRSSITRDTSKNQFFLQLNSVTTGDTATYYCARGNFEGAMDYWGQGTSVTVSS
VL: SIVMTQTPKFLLVSAGDRVTITCKASQSVSNDVAWYQQKPGQSPKLLIYYASNRYPGVPDRFTGSGYGTDFTFTISTVQAEDLAVYFCQQDYSSPWTFGGGTKLEIK
notes: Mouse monoclonal antibody from hybridoma KCLRF-BP-00295, purified on Protein G and detected with anti-mouse IgG; the mouse constant regions are not; also called mouse antibody 10D6; mouse anti-Ang2 antibody 10D6
binding result (hTie2-Fc (R&D Systems)): no binding (tested: 2 µg/ml) | binding result (BSA [3]): no binding (tested: 2 µg/ml)
